Measurements as given in paper PMC8864705 (Chemical Science, 2022).
Numbering of substitutions follows the chain as printed. Names may count otherwise.

T1: 4.1G-CTD triple mutation I958D/V959D/I960D (human, UniProt O43491 939-1005, I958D | V959D | I960D)
T1 sequence (looked up): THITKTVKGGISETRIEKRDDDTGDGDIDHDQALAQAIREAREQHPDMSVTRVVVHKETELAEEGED

T2: C-terminal domain of protein 4.1G (4.1G-CTD, aa 939–1005) (human, UniProt O43491 939-1005)
T2 sequence (looked up): T1 sequence (looked up) with D20I, D21V, D22I


Columns and labels:
[1] = biological target: T1, 4.1G-CTD triple mutation …; assay: ITC
[2] = biological target: T2, C-terminal domain of protein 4.1G …; assay: ITC

Kd [1] | binding result [2] | Binder
333 ± 73 µM | – | SGRKTRSARRRTTQIINITMTKKLDV (domain or fragment, human, UniProt Q14980 1800-1825, looked up) [NuMA 1800–1825 (26-residue motif at the C-terminal region of nuclear mitotic apparatus protein)]
– | binds | SGRKTRSARRRTTQIINITMTKKLAV (domain or fragment, human, UniProt Q14980 1800-1825, looked up) [NuMA 1800–1825 mutant D1824A]
